This series in a line: soluble on expression in E. coli; label from the status in PepcDB or PDB records.
For the sequence “MSLTIYHPAELPQRQAEKSPNKTIIKYYDRESKQWRNISWSKFAAGVMNAAKALAEIGLESGERIGIYSPNMVHCLYTELGAFAMRGVVVPLYATSSPEQLRFIVEDSSMETLFVGEQFQYNNAYRVQKEYGTLKRIVVFDERVVLNPEDKTSKYFSEFVRLGDSMPNETKVKVSSREAIPSDPALIIYTSGTSGRSKGVLLLHSNLMYQMKVHSEHIPVYGPGELSIAFLPMSHIFEKAWTLFCLTTGTRIAILRDPKKVLEALPQIRPSLMCNVPRFWEKVYQGVNEKMASSPRILKGVYRRAMAVGQRYRLDYWNEGKRAPLLLSMQYAFYNCTIFTLLKRVLGLQRGRYFPTAGAPLSDEINIFLQSVNIPIIVGYGLSETTATVSFYPQRGFKIGSMGKVMPGLDARIDPDNNEILVKGESVMSEYYNLPEETAGAFTPDGYFRTGDAGRMDPDGTLYFLERIKDLYKTANGKYIAPQMIEGMLTKDPIIEQIAVIGDRFKYVSALVYPNWELVRQAAIKRGLEQARTMSVDEMAANPEINRLMMARIEAAQDSLAAYEKVKYITLLAEPFTLEKGELTETMKLKRRVINEHYAEAIEKMYEGHHHHHH”, the “soluble on expression in E. coli” value is “soluble”.

On to “MAHHHHHHMILRTAGASNVYSVFAYPGTGKARDMLTTETADTSGSESGNLTNVRARHCAHFQFNKMCNLGESCNFIHSLVPYVQRLSMSSQGPLYNSIVTQRPLLMPSTSMAHFSRFPNGNNNNGVVSSYSMEFMQPSMLHVSPQTQQQQQQQKQQQKQQQKQLHQQPQHAMPPPPPTVSHLIPSPQPSEHLMYQSNMSMMSLPMYMSSPISSTWDGVRYGANYQ”, for which the “soluble on expression in E. coli” value is “not soluble”.

Turning to “MSLRVRTPSDDPVASAQIELIKQRINNIELFQNNRQAADSALRLEEGILSNAVNSLHRLREIQIQAGNPSLSEEDRKTLAVEAQALLNQLLDYANTKDSNGSYMFSGSKSLTQPVSLNLSGQYVYNGDSTQRFQAVTTSLLVAVNDTGDNVFMRIPSGNGRFAIRETLTPNTGTASVSSGSVTNEAAFVPDNYTMTFALNSQGNLVVMVSGTLSGNVIPPSGLPDDAPLYQEGSAIGFNGMEMVVSGLPKAGDSFSISPAKNESIFSTVQRMINNLNKPYTSSVEKAATQTENNQLLAQIDSALGHILSVQSDLGARLNQLETAEKANNDYLDISAATLKKLREIDPVAVATELNLQLVNLQAAQLSFTRIQGLSLFNFLEGHHHHHH”, the “soluble on expression in E. coli” value was “soluble”.

For “MGSSHHHHHHSSGLVSRRHMNIDMAALHAIEVDRGISVNELLETIKSALLTAYRHTQGHQTDARIEIDRKTGVVRVIARETDEAGNLISEWDDTPEGFGRIAATTARQVMLQRFRDAENERTYGEFSTREGEIVAGVIQRDSRANARGLVVVRIGTETKASEGVIPAAEQVPGESYEHGNRLRCYVVGVTRGAREPLITLSRTHPNLVRKLFSLEVPEIADGSVEIVAVAREAGHRSKIAVRSNVAGLNAKGACIGPMGQRVRNVMSELSGEKIDIIDYDDDPARFVANALSPAKVVSVSVIDQTARAARVVVPDFQLSLAIGKEGQNARLAARLTGWRIDIRGDAPPPPPGQPEPGVSRGMAHDR”, the “soluble on expression in E. coli” value is “soluble”.

As to “MDVQLPYNVKIEAFEGPLDLLLHLINRYEIDIYDIPVAQITEQYMAYIHAMQELELDIASEYLVMAATLLAIKSKMLLPPSNEEAVDGDIEWGDDGDPREELTQRLLEYKKFKEAARELKRREEERALLFTKPPSDLSAYADEKKAAPLDVNVYDMLGALSKLLRRKKLQKPMRAKISRQDISVEQRMAEILHELKQANGRKNFYELFPSYDRSYIVVTFLAILELMKQDEIIVEQERNFSDLFLAVKPAG”, the “soluble on expression in E. coli” value is listed as “not soluble”.

As to “MSLFHREDFSKALLKKALQPGMRVMDIGCGSGELTRLAADIVGKEGDVVGIDINEQLLWQARHDNGYANVSYQNADLAALSSFETKSFDAIIGRRVLMYQKDPKKVIESLTPLLKPNGFYVFQESDAMCLELAKPSFVNMNKIQSLIWQTVEKEGGHIHIGSQLEQLMLEAGLIVDHFVSENVIQTSQTGTDLSWLLNIMKERIQKYSDLQGLEDVNLQKELEENNDHFIRDCQFGIISHRVDEGHHHHHH”, the “soluble on expression in E. coli” value was “soluble”.

Consider “LIERIEGFEPQWWEQGGAKPEKPEMREPRQRNRYESAKAQREKNTRPENAANDAGAACGKIAGRSRRSRREHRTCALLQPRYGVK”, for which the “soluble on expression in E. coli” value was “soluble”.

For “MSLLWKKAQEETHDYIIRKADPSDAAGIISCMQSVMDERIYLVGEYYLLSERAEQERIKSLDDLTLVCVIDRKVVGVLTVQRGIYRKNRHTGMLGIAIMAGHRHKGLGTRMIKEAILWCEDQGIKKLNLEVFSTNVNAIKTYEKVGFEVEGKRRKQFLIDGQYVDDVLMTYYVDKSLKEEGHHHHHH”, the “soluble on expression in E. coli” value is “soluble”.

Turning to “PAVKPVIGEVTPNSIVAEAGIESGMELKAVSGIKTPDWESVNMGLISHIGDDAMTLTLTSDSEVGAEVTKTLDLRDWKFDPETESAMHSLGFAPYTPEIYRVIKQVSEDGAAAKAGVLPEDEIIAIGGEPINDWKQVVDAVRSNPNTPIELTVLRRGIEQSLTLTPDSRELANKQVVGFAGIAPEVAEWPESYRFELQFGVFESIGKAVDKTGQVIGLTVSMLKKLIVGDVGLNNLSGPISIAKGAGATADYGL”, the “soluble on expression in E. coli” value is on record as “not soluble”.

Turning to “MVESNKTAADTYSLAIFRAIRRLQQAAEIHSKRLSRYGGLTPLQLLILHVLAVEGELTATQLAKLVSLSQASLSGVLDRLEGRGLLYRRRDEQDRRKSWLHLDPAGHEALAEAPPLLPEYVIERFAALPEWERHGLLAALLRAADLFGLPEEDVEEE”, the “soluble on expression in E. coli” value is listed as “not soluble”.

Take “MAGDKGGGDGERRLRQPIVVVLGHVDHGKTTLLDKIRRTAVAAKEAGGITQHIGASIVPADVIEKIAEPLKKVIPVKLVIPGLLFIDTPGHELFSNLRRRGGSVADFAILVVDIMEGFKPQTYEALELLKERRVPFLIAANKIDRIPGWKPNPDAPFIETIRRQDPKVREILEQRVYEIVGKMYEAGLPAELFTRIKDFRRKIAIVPVSARTGEGIPELLAVLAGLTQTYLKERLRYAEGPAKGVVLEVKEMQGFGTVVDAVIYDGVLKKEDIIVVGGREGPIVTRVRALLMPAPLQDIRSREARFVQVDRVYAAAGVRIAAPGLDDVIAGSPIYAAESEEEARKLMEAVQREIEELRFRTENIGVVVKADTLGTLEALVEALRRRGVPVRLADIGPVSRSDVLDAAVTRKIDPYLGVVLAFNVKVLPEAEEEASRAGVKIFRESMIYKLIEDYEEWVKKEKEAERLKALNSLIRPGKFRILPGYVFRRSDPAIVGVEVLGGVIRPGYPVMDSQGRELGRIMAIKDRDRSLEEARLGAAVAVSIQGRILIGRHANEGDILYTNVPAQHAYKILTEFKDLVSKDELDVLREIAEIKRRAADHEYNKVLLRLKIKRVSQ”: the “soluble on expression in E. coli” value is on record as “soluble”.

As for “MCMHNSGFNLNLPPWVIASRHFNDNPHPLEVQGVRLANRFLFERLDAIASPDERGTVFNDYMSVKFQLHLWQEQATPSARKSLKNSYLRYLRGWMMDSNSVEGAVLKGWVESRMGIVPSFHKARITGIHTESYYGYVVDRTAGSKRTSAINSQLDILYEFCQYELARRFPGELWVTLYRGTFAADDYDVVEELGRREKIIRFNNLVSFTSHEERAWEFGSTVWEIRAPLSKVFFFDDLLPGSILKGEGEYLVIGGEYRVRRVMCTVLEHHHHHH”, the “soluble on expression in E. coli” value is “not soluble”.

On to “SLTTVSVNESLLTPLNLEIDPNAQCVKQEEKEQIKSLNSRFAAFIDKVRFLEQQNKLLETKLQFYQNRECCQSNMEPLFEGYIETLRREAECVEADSGRLASELNHVQEVLEGYKKKYEEEVSLRATAENEFVALKKDVDCAYLRKSDLEANVEALIQEIDFLRRLYEEEIRILQSHISDTSVVVKLDNSRDLNMDCIIAEIKAQYDDIVTRSRAEAESWYRSKCEEMKATVIRHGETLRRTKEEINELNRMIQRLTAEVENAKCQNSKLEAAVAQSEQQGEAALSDARCKLAELEGALQKAKQDMACLIREYQEVMNSKLGLDIEIATYRRLLEGEEQRLCEGIGAVNVCVSSSRGGVVCGDLCVSGSRPVTGSVCSAPCNGNVAVSTGLCAPCGQLNTTCGGGSCGVGSCGISSLGVGSCGSSCRKC”, for which the “soluble on expression in E. coli” value is “soluble”.

“MGSDKIHHHHHHMLNYHHLRYFWIVAHEGNLTRAARKHNIAQSALSMQISALEEYLGQPLFERAGRRLVLTEAGHIALDFADAIFAKGDELLGTFGRLAEAHQKVLRVGALATLSRNFQVGFLRPLFADPEITVIVRSGTLDELLGSLKLYDLDIVLATGVPNRDHATPWIVHIIDTQPVGLIGQPRSDRYQQPLEVLLQREPLIVPSPESTIRTGFDALVHRLGIRPRIVAEIDDMAMMRLVAREHNGLAVIPPIVVTDELRSGMLVEYAELPELVETFCAITMPRRFPNPLLRLVLPGHTTPE”: the “soluble on expression in E. coli” value is “not soluble”.

In the case of “MAHHHHHHMPPLHSRATRQLVKERSKIEGPRSLHRGIHYQENEAHASSYMQNAKKKRADHRDLLVHHQRINEDLQDIYTRTAALHSDNMTMEERIEESWKKYERIGGKRPANVRTHGQDAVLCANQTAVPYAERLAQVSQQKKELRERGAWERLTHGEAVDYSKGSALHAAKDKRVQMFQRRQLRRAHLLRRVGDPTPLKQSGTYDMNSGTLRVFNKTIRNVQREVAHDARIAEVRKRRKNSRSQWDLNESGNVNRPDQEILRYSRDWELGPQRKARGGGGGGGRGGRKRGRDEL”, the “soluble on expression in E. coli” value is listed as “not soluble”.

“MAQMTMVQAITDALRIELKNDPNVLIFGEDVGVNGGVFRATEGLQAEFGEDRVFDTPLAESGIGGLAIGLALQGFRPVPEIQFFGFVYEVMDSICGQMARIRYRTGGRYHMPITIRSPFGGGVHTPELHSDSLEGLVAQQPGLKVVIPSTPYDAKGLLISAIRDNDPVIFLEHLKLYRSFRQEVPEGEYTIPIGKADIKREGKDITIIAYGAMVHESLKAAAELEKEGISAEVVDLRTVQPLDIETIIGSVEKTGRAIVVQEAQRQAGIAANVVAEINERAILSLEAPVLRVAAPDTVYPFAQAESVWLPNFKDVIETAKKVMNF”: the “soluble on expression in E. coli” value is listed as “soluble”.

With “MNTNDAKEYLARREIPQLFESLLNGLMCSKPEDPVEYLESCLQKVKELGGCDKVKWDTFVSQEKKTLPPLNGGQSRRSFLRNVMPENSNFPYRRYDRLPPIHQFSIESDTDLSETAELIEEYEVFDPTRPRPKIILVIGGPGSGKGTQSLKIAERYGFQYISVGELLRKKIHSTSSNRKWSLIAKIITTGELAPQETTITEIKQKLMQIPDEEGIVIDGFPRDVAQALSFEDQICTPDLVVFLACANQRLKERLL”, the “soluble on expression in E. coli” value is reported as “soluble”.

As for “MTPAQLTGTTDSHLQSTMVGQKAFLMHPDVANDLLNMIEAAKKAGFKMEIASGFRDFSRQRAIWNGKYEGELPILDSNSQPLNKAALSDEEKLKAILRWSALPGGSRHHWGCDFDVYARNLLPPDTKLQLEPWEYLEGHQLAFYCWLKDHIDEFGFFFPYLQDLGGVAIEPWHISHKAIGQQCAAQLNAEMLKDELVRQNQQHNIAGLESILNNLDSILSTYIRNITPPPEAL”, the “soluble on expression in E. coli” value was “not soluble”.

Take “MGSDKIHHHHHHMSKNDLADLLRVGPETTMGKFMRQYWLPAVLSHEVKADGDPVRLMLLGEKLIAFRDSSGRVGVLDHRCPHRCASLFVGRNEENGIRCVYHGWKFDVDGNCVDMPSVPARLDFKEKVHARAYKAVERNGLIWVYMGENQNNPPPLPAIEANMIPGSKIWCLQRQCNWLQALEGDIDTSHVGFLHVGALQPEDLPEGSPLRPTVLNRAPEYRVQNAEWGATYGAYRLAEDGRMSWRAAQFMFPFWTMTPNILFSTRAIARAWVPMDDTHVMLFDITGGVDEGNPFFTTKLKNGEPMYEKIRRKPNGTGWYDRWLPVDGLQNDWGIDREAQRNMIHYTGIDNPSMQDQAITESMGPITDHSFEHLAPTDQMIAFVRRRLTQALRNFRDDSAPAPCAFSPETYFGARSGAFWADPVVEFSTAYRVELEKAQRWPANPDGSAVEREPEVAR”: the “soluble on expression in E. coli” value is listed as “not soluble”.

In the case of “MIGGGIGISFRNEFFNPQTPVNIPVQGFSNGARLRLVLLPTSADSRFHINLRTPDDIVLHFNARFDEGAVVNNSTSGGGWQSEDRHANPFQQNKIYTLEFVSNGGIISIFVNGAHFADFVERTPSHGVHLIEIEGGVHVHSAHVSH”, the “soluble on expression in E. coli” value is “soluble”.

Values taken from the DeepSol protein solubility set.
